The text below walks through data of the supplement of paper PMC12764529.

± gives the half width of the 95% confidence interval.

Series [1] is described as follows: folding stability dG unfold from chymotrypsin proteolysis; higher = more stable. In short, it runs like this: (§1)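 How resistant each design was to proteolysis was captured as K50, inferred by Bayesian fitting of sequencing counts. Unfolding free energy was then derived relative to a sequence-predicted unfolded-state K50 and a shared folded-state K50, per protease or combined. Digestion used trypsin and chymotrypsin at 11 threefold-diluted concentrations plus a no-protease condition, on mini-proteins under 80 residues without cysteine in a PA-tagged cDNA display construct. Designs were kept only when AlphaFold2 dimer inter-PAE was above 15.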

The nature of series [2]: folding stability dG unfold (combined trypsin and chymotrypsin); higher = more stable. In short, it runs like this:
as §1

The nature of series [3]: folding stability dG unfold from trypsin proteolysis; higher = more stable. The method in brief:
as §1

Consider “SAGGMEEVIKELAKSLGVTKILPESEAKKLSSSVPNALAAVKLPDGSYVLIKRNSDGSVSSIKYKLESAGGS [r16_686_JUSTAS]”, for which the results for the “folding stability dG unfold” value in series [1], in series [2] and in series [3] were 1.83 ± 0.087 kcal/mol, 1.54 ± 0.1 kcal/mol and 1.14 ± 0.018 kcal/mol, respectively.

With “SAGGMEIKVTVEKREDGYLVVTVEKAESKEEAIEAIKKELREKYPDAEITITDKDGNTIVIKLKDLKSAGGS [r8_236_TrROS_Hall]”, the “folding stability dG unfold” value in series [1] came to 2.52 ± 0.1 kcal/mol; in series [2] it was 2.06 ± 0.067 kcal/mol; in series [3], 1.16 ± 0.071 kcal/mol.

With “SAGGMEKIEIEVENEDGEKVKIEIYFDEETGFIVVKIEGENPELIDALKKKLGLEIVEKREDGYLVFKSAGG [r13_937_TrROS_Hall]”, the “folding stability dG unfold” value in series [1] was 3.72 ± 0.13 kcal/mol; in series [2], 3.48 ± 0.23 kcal/mol; in series [3], 3.01 ± 0.24 kcal/mol.

On to “SAGGMEKVKVRVFFIDEETGEPREVEVEATLEELRELIEKIPDKGRVLVKLELPDEERIVTLEELKERSAGG [r13_254_TrMRF]”, for which the “folding stability dG unfold” value in series [1] worked out at 3.23 ± 0.1 kcal/mol; in series [2], 2.76 ± 0.15 kcal/mol; in series [3], 1.79 ± 0.065 kcal/mol.

With “SAGGMELEKAIEFAKETGKEVEIEIEVEDENGKPFVIRVRVKVKPDPEDPNKYKIEVEVEVFPKEELSAGGS [r16_323_TrMRF]”, the figures for the “folding stability dG unfold” value in series [1], in series [2] and in series [3] were 4.38 ± 0.13 kcal/mol, 4.08 ± 0.12 kcal/mol and 3.61 ± 0.19 kcal/mol, respectively.

“SAGGMELLGEVTVEKPGKPITFPIYRVPDEPREVVEVRELDPSTGKWTPIGTRELPPGEAERAIEELSAGGS [r8_423_JUSTAS]”: the “folding stability dG unfold” value in series [1] was determined as 0.573 ± 0.17 kcal/mol; in series [2] it was 0.544 ± 0.16 kcal/mol; in series [3], 0.36 ± 0.08 kcal/mol.

“SAGGMELPPEVKTIAEKLEAEGYDVLAVPVGDSYVIAVDGKVAATPEEFEKLKKIPGVKKLITIDLPSAGGS [r16_275_TrMRF]”: the “folding stability dG unfold” value was 0.583 ± 0.049 kcal/mol in series [1], 0.541 ± 0.13 kcal/mol in series [2] and 0.432 ± 0.056 kcal/mol in series [3].

Turning to “SAGGMELTIPLPNGKLLKIKVEEVKAEPVLVEFELRDANGKLIDTIPAPSGFKISIRFSVEIYDPNEYSAGG [r13_848_TrMRF]”, the “folding stability dG unfold” value in series [1] was found to be 3.908 ± 0.032 kcal/mol; in series [2], 3.61 ± 0.077 kcal/mol; in series [3], 2.92 ± 0.091 kcal/mol.

Consider “SAGGMEPPPMLLLVIEIENEDGEKLRIVVPLEDLEEVLKALGLSKEEVRIKKIEVVPLTDEQLKELLESAGG [r13_850_TrROS_Hall]”, for which the entries for the “folding stability dG unfold” value in series [1], in series [2] and in series [3] were 3.57 ± 0.25 kcal/mol, 3.32 ± 0.28 kcal/mol and 3.43 ± 0.35 kcal/mol, respectively.

Consider “SAGGMETIELEIEITDEDGNTYRIRVTIERKDGKLVIKIEVEAETPEERERARELAEELARRLEEELSAGGS [r8_416_TrROS_Hall]”, for which the “folding stability dG unfold” value in series [1] stood at 5.3 ± 0.35 kcal/mol; in series [2] it was 4.94 ± 0.6 kcal/mol; in series [3] it was 4.1 ± 0.19 kcal/mol.

Regarding “SAGGMEVTFPVSPDLSPEEVRARIEAEIRPIAEARGAVDVEVPIVEYRRLPPDSVEFRFKVTVRFPRSAGGS [r8_184_JUSTAS]”, the “folding stability dG unfold” value in series [1] amounted to 2.4 ± 0.052 kcal/mol; in series [2] it was 2.33 ± 0.11 kcal/mol; in series [3], 1.94 ± 0.089 kcal/mol.

Consider “SAGGMEVVFVVGSPEVAEAFREKHPDLPFVPVSLEDYRNPAPFEAAVAAVEARGHAVRVITVPDDPESAGGS [r8_376_JUSTAS]”, for which the figures for the “folding stability dG unfold” value in series [1], in series [2] and in series [3] were 1.12 ± 0.05 kcal/mol, 0.796 ± 0.064 kcal/mol and 0.0526 ± 0.14 kcal/mol, respectively.

For “SAGGMFKGPDGNWKTYKTTKPGLTKSDIGPFVEELVEKFLKDHGLNPENVSAKAEYNPSTGTVNVYVGSAGG [r13_913_TrMRF]”, the “folding stability dG unfold” value in series [1] was found to be 0.783 ± 0.083 kcal/mol; in series [2] it was 0.576 ± 0.08 kcal/mol; in series [3], 0.041 ± 0.039 kcal/mol.

As for “SAGGMFLRIEPEDGSRFEIPLNDPSLPLEVVVGLVSKYMDGPVKLKLTLVLPEEEVEYEYEIPLEKKSAGGS [r16_216_TrMRF]”, the figures for the “folding stability dG unfold” value in series [1], in series [2] and in series [3] were 2.37 ± 0.061 kcal/mol, 1.98 ± 0.098 kcal/mol and 1.24 ± 0.028 kcal/mol, respectively.

In the case of “SAGGMGLEELAKLSPEEIARRLAAEAKAAAAAAGTPDAAVTLEVTLEDKPIVVEVGADGTIRRVELGSAGGS [r16_431_JUSTAS]”, the “folding stability dG unfold” value came to 1.16 ± 0.024 kcal/mol in series [1], 0.922 ± 0.063 kcal/mol in series [2] and 0.442 ± 0.1 kcal/mol in series [3].

Consider “SAGGMGSEKLPLTLTLPGDRKLEVTVYRVGDKLYVEIKLTHGSKPLGTLTVEADSLDEVLDAAKEAASAGGS [r16_55_TrMRF]”, for which the “folding stability dG unfold” value in series [1] came out at 3.58 ± 0.062 kcal/mol; in series [2], 3.28 ± 0.15 kcal/mol; in series [3], 2.77 ± 0.15 kcal/mol.

Regarding “SAGGMIAEIKPIPPNVPDGATATITFPDGTPAEAELRTEPLEDGPRRVVLKLKGKEGEIELEFVLPLSAGGS [r8_360_TrMRF]”, the “folding stability dG unfold” value was -0.488 ± 0.31 kcal/mol in series [1], 0.0112 ± 0.099 kcal/mol in series [2] and 0.16 ± 0.13 kcal/mol in series [3].

Turning to “SAGGMIEIEYNPDQGYFRITVWPMNPKNGKPKSKEIPIPFEGDPEEALDKVKDLIDDHPGYHVDIEPYSAGG [r13_284_TrROS]”, the entries for the “folding stability dG unfold” value in series [1], in series [2] and in series [3] were 1.27 ± 0.13 kcal/mol, 1.05 ± 0.14 kcal/mol and 0.657 ± 0.068 kcal/mol, respectively.

Consider “SAGGMIELTIVVKTKEEAEKAAEELARKLAEELGVEVTVTSVEVEEVEDPETGETYLVVRVRIEVKPSAGGS [r8_171_TrROS_Hall]”, for which the “folding stability dG unfold” value was determined as 4.12 ± 0.11 kcal/mol in series [1], 4.53 ± 0.23 kcal/mol in series [2] and 4.75 ± 0.27 kcal/mol in series [3].

Consider “SAGGMIKITVTLPDPARVRALFAELGLDVEVTPLPDGSVEIYLPEEYKEKVVEALPEEEVEITPVPPLSAGG [r13_261_JUSTAS]”, for which the entries for the “folding stability dG unfold” value in series [1], in series [2] and in series [3] were 3.05 ± 0.17 kcal/mol, 2.91 ± 0.14 kcal/mol and 2.5 ± 0.13 kcal/mol, respectively.

Consider “SAGGMIKLEFENPDGMRIKIEIDRIHRFDPDNGYLIIPVKIEVEPPGKPREIDGTIILPPGMPPGQPLSAGG [r13_823_TrROS]”, for which the figures for the “folding stability dG unfold” value in series [1], in series [2] and in series [3] were 0.811 ± 0.082 kcal/mol, 1.43 ± 0.24 kcal/mol and 2.04 ± 0.19 kcal/mol, respectively.

As for “SAGGMIRIERDGDRLTIEIHLPEGEELTPEQLEELARALLEELGPDARVVRVERLEDGTVRIEVELPSAGGS [r8_103_TrROS_Hall]”, the “folding stability dG unfold” value came to 2.35 ± 0.07 kcal/mol in series [1], 2.88 ± 0.13 kcal/mol in series [2] and 3.32 ± 0.14 kcal/mol in series [3].

Take “SAGGMITATFTIDLGAGPVTFTFDITDIETALEKIKEYLKSQGIDAKLVSVSVDPANGTVPMKLSVPPSAGG [r13_567_JUSTAS]”: the “folding stability dG unfold” value in series [1] was found to be 1.46 ± 0.14 kcal/mol; in series [2], 1.56 ± 0.12 kcal/mol; in series [3], 1.58 ± 0.043 kcal/mol.

In the case of “SAGGMIVIEKEEDGFYRITIRNKETGEEVEEIPISKEELEELLKEAEENMSLEEIAEKLGLEIEIEKVSAGG [r13_836_TrROS_Hall]”, the “folding stability dG unfold” value came to 0.971 ± 0.023 kcal/mol in series [1], 1.27 ± 0.12 kcal/mol in series [2] and 1.68 ± 0.047 kcal/mol in series [3].

On to “SAGGMIVIEVETEEEALEAARELAKKLLEKLKEEGIEEVTLTVTVEVVDEKTKEVKTYTLTLTVKKPSAGGS [r8_163_TrROS_Hall]”, for which the figures for the “folding stability dG unfold” value in series [1], in series [2] and in series [3] were 4.19 ± 0.051 kcal/mol, 4.08 ± 0.21 kcal/mol and 3.94 ± 0.23 kcal/mol, respectively.

On to “SAGGMKFELVARFDSKEAAEKAVEELVRELFPDFDVEVEVEVIEDPETGTFLAIATITLPLPGPEDLSAGGS [r8_17_TrMRF]”, for which the “folding stability dG unfold” value is 4.18 ± 0.19 kcal/mol in series [1], 4.19 ± 0.2 kcal/mol in series [2] and 4.31 ± 0.21 kcal/mol in series [3].

“SAGGMKIEFDEKTKRITITLPDGKKVEIELKDGRKVEITFERVDGKLKVVIKHKNEEEALELAKKLLSAGGS [r16_623_TrROS_Hall]”: the “folding stability dG unfold” value was determined as 1.34 ± 0.082 kcal/mol in series [1], 1.55 ± 0.26 kcal/mol in series [2] and 1.15 ± 0.086 kcal/mol in series [3].

On to “SAGGMKIEITVSPVGDVVNVEVKIELPEGPVEVVDETPAEVAPDGSIHIKLKLKLPNGPWLEMEIEVSAGGS [r8_449_JUSTAS]”, for which the figures for the “folding stability dG unfold” value in series [1], in series [2] and in series [3] were 3.97 ± 0.15 kcal/mol, 3.87 ± 0.33 kcal/mol and 2.91 ± 0.24 kcal/mol, respectively.

“SAGGMKIEIVEIEREGNTITIKAKITLPDGTVIEITAKAEFVDGELKLEIKVEVRKLPPPPPPPPEESAGGS [r8_458_TrROS_Hall]”: the “folding stability dG unfold” value turned out to be 2.73 ± 0.39 kcal/mol in series [1], 2.55 ± 0.53 kcal/mol in series [2] and 2.87 ± 0.27 kcal/mol in series [3].

As to “SAGGMKIEVRPLPGDGFVVRLPGDVVALIDPSTGEAVAFFPDGSVARLTITRDPDRPEFTITIEPVGSAGGS [r8_186_TrMRF]”, the results for the “folding stability dG unfold” value in series [1], in series [2] and in series [3] were 1.89 ± 0.032 kcal/mol, 1.83 ± 0.069 kcal/mol and 1.77 ± 0.059 kcal/mol, respectively.

Turning to “SAGGMKIGVLLPKSIPPEKAEEFLKKLNPDLEVEYRPVEPGSLKDIPPEIEVIVLPADDDFALALVKPSAGG [r13_649_TrMRF]”, the “folding stability dG unfold” value in series [1] is -0.401 ± 0.12 kcal/mol; in series [2], 0.00463 ± 0.11 kcal/mol; in series [3], 0.323 ± 0.044 kcal/mol.

Take “SAGGMKIKVTVEVTFPDGTVRTFPVPDATSEEEVRAILAERGFGDLADVPIRITEREPVPAVPPEELLSAGG [r13_493_JUSTAS]”: the entries for the “folding stability dG unfold” value in series [1], in series [2] and in series [3] were 1.76 ± 0.043 kcal/mol, 1.69 ± 0.071 kcal/mol and 1.68 ± 0.033 kcal/mol, respectively.

“SAGGMKINPKVFGNYVLVEVENPETGSRILKLVEFNPGPKTATVKVFYIDPNGKPTLLEEKTFSLPDLSAGG [r13_768_TrMRF]”: the “folding stability dG unfold” value amounted to 2.736 ± 0.025 kcal/mol in series [1], 2.32 ± 0.071 kcal/mol in series [2] and 1.36 ± 0.018 kcal/mol in series [3].

Turning to “SAGGMKIVSIEYDKENKKITIKVEAPPGVSAEELAKKIKELAKELFGKEIEIEVKVEKVEFFEPEEESAGGS [r8_314_TrROS_Hall]”, the results for the “folding stability dG unfold” value in series [1], in series [2] and in series [3] were 3.12 ± 0.13 kcal/mol, 3.33 ± 0.12 kcal/mol and 3.61 ± 0.16 kcal/mol, respectively.

For “SAGGMKIVSVEFDEETGEVYVKIEVPTPEELEALKKLPGEVRIVDKETGEVKVIKVKSIEELLELLKKSAGG [r13_604_TrROS_Hall]”, the “folding stability dG unfold” value in series [1] came out at 2.18 ± 0.071 kcal/mol; in series [2], 2.05 ± 0.15 kcal/mol; in series [3], 1.86 ± 0.086 kcal/mol.
